Test system: MS2 coat protein
Assay: apparent KD of MS2 coat protein; designed switch direction (-1 OFF switch, 1 ON switch): -1; higher = weaker reporter binding
In short: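 An oligonucleotide input, 200 uM small-molecule ligand, or no input was present during titration of SNAP-549-labelled MS2 coat protein, which was doubled from 0.7 or 1.5 nM to 3 µM. Designed RNA switches had been transcribed on Illumina chips by stalled E. coli RNA polymerase. Apparent KD per design is the median over clusters of curves fitted to normalised cluster fluorescence.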

[1] = Eterna round: R95, input ligand: microRNA oligo, concentration not stated
[2] = Eterna round: R95, input ligand: FMN 200 uM
[3] = Eterna round: R95, input ligand: none
[4] = input ligand: microRNA oligo, concentration not stated

Sequence	apparent KD of MS2 coat protein (input ligand: FMN 200 uM) [nM]	apparent KD of MS2 coat protein (input ligand: none) [nM]	apparent KD of MS2 coat protein [1] [nM]	apparent KD of MS2 coat protein [2] [nM]	apparent KD of MS2 coat protein [3] [nM]	apparent KD of MS2 coat protein [4] [nM]
UCUUGUUGUCCUUGAUUUUACAUGAGGAUCACCCAUGUUAUUUUGAUUAUGAUGUGUAAGUUUGUUGCUCGUUUUAU [JR_STOV1_Sub068] (Eterna round: R97, puzzle: Sensor, turn-off variant 1)	49.8	54.3	–	–	–	–
CGUCAUCAAGUCAGGAUAUCGUCAAAUCAAUCAGGCGAGAAGGGACAUGAGGAUCACCCAUGUCGACUCAUCAC [Ex4 #3] (Eterna round: R97, puzzle: Brourd's mod of Exclusion 4)	24.9	21.3	–	–	–	–
GUAGAGUCAGGAUAUACAAGAUCGAAAGAUCGAAGAUUUAUACAUGAGGAUCACCCAUGUAGAAGGGACUCUAC [ChP 11-04-2015 #4] (puzzle: Exclusion 2)	–	–	12.4	–	–	–
GAUUAUGCGAGCUUUAGGGACAUGAGGAUCACCCAUGUUCGUCUUGUUGAUCUAGGUGCGCUAACAUACCUAAAUCU [JMF 48] (puzzle: Sensor v3, turn-off variant 1)	–	–	30.5	23.5	23.4	–
CAAACUUCGCGAGGAUAUGGGAUCAUAUAGAUGCCAGAAGGCGCGACAUGAGGAUCACCCAUGUGUUUUGCCCUGUGAUUCCAG [Eternabot solution 12] (Eterna round: R96, puzzle: Exclusion NG 1)	22.2	21.5	–	–	–	16.6
AAAGUGUGAGGAUAUCCUGGGCUGGGCCGGGAGGUUCGGUUGGAGAAGGCACAUGAGGAUCACCCAUGUAACGG [Excls4-IX] (puzzle: Exclusion 4)	–	–	57.1	–	–	–
ACAUGAGGAUCACCCAUGUGAAACCAAUGGCUGACUUUGAGACAGGAUAUUCGUGCAUAUCAUACGAAGAAGGGUCAUUACUGG [Deportation 96 - Jieux - Exclusion NG 3] (Eterna round: R96, puzzle: Exclusion NG 3)	63.5	55.2	–	–	–	45.8
AGAAGACAUGAGGAUCACCCAUGUAAGGAUAUCGAAGGUAAGAGAGGAAAGAAGUUAACGAGAAGGUACAGGUG [JR_Exclu1_Sub097] (puzzle: Exclusion 1)	–	–	123	101	116	–
CUAAAUCAUGUAGGAUAUGCGUAGCAAAGCUAUGCAGAAGGACAUGAGGAUCACCCAUGUCAUUCCGUCUGGAGACAGACGGGA [Mat - Exclusion NG 1 - Mod of JL - D55] (Eterna round: R96, puzzle: Exclusion NG 1)	186	30.8	–	–	–	21.6
UGUUGUUACGCAGGAUAUUGUCAACAGGCAGUAGGAUAUCCGAAAGGAGAAGGACCGCCAACAGGCGAGAAGGGCGGGUUAACA [pwkr exNG2 2xF7 2xFMN.7] (Eterna round: R96, puzzle: Exclusion NG 2)	369	323	–	–	–	167
AAAUAGCAUGAGGAUAUUGAACUGUAUUCAGUACGAGAAGGCAUGACAUGAGGAUCACCCAUGUUUUGUUGGGA [EX6 #5] (Eterna round: R97, puzzle: Exclusion 6)	126	27	–	–	–	–
CAAAAGGUAGGAUAUACGAAAAAAAAGGGUAGAAAAAAAACACAUGAGGAUCACCCAUGUAGAAGGACCAAAAC [salish99_ex2_r3_042] (puzzle: Exclusion 2)	–	–	22.6	95.7	21.6	–
AAAUUAGCAAGUAGAUCCGACAUGAGGAUCACCCAUGUAAUCUAAUAUUACGCUGCACGAAAGUGCGCUCGUCUUAG [Sensor-V1 #14] (Eterna round: R97, puzzle: Sensor, turn-off variant 1)	416	470	–	–	–	–
GGGUGACAUGAGGAUCACCCAUGUCAGGAUAUGAUUCUGCUUGCGAAAGCGAGUAGAAUCAGAAGGGACAUCCC (Eterna round: R97, puzzle: Exclusion 1)	293	65.2	–	–	–	–
GAGUGACAUGAGGAUCACCCAUGUGAGGAUAUCGGCCGGACCUUGUUAGCUUCCGCCGCGAGAAGGCACAUCGG [Exclusion 1 V28] (puzzle: Exclusion 1)	–	–	55.9	–	–	–
GUCACUAGAGGAUAUACAAUGGUAUAUGAUCCUAGAGACAAACAUGAGGAUCACCCAUGUAGAAGGCUAGUAAU [Exclusion 2 - 3] (puzzle: Exclusion 2)	–	–	178	23.8	123	–
CGUGGCUUUUACGUGAGUGGUGGGUGCAACAGGUGGGUUACAUGAGGAUCACCCAUGUGCUCACUUGCUCGUCUUUU [Grok-var2-10] (puzzle: Sensor v3, turn-off variant 2)	–	–	17.5	51.8	52.5	–
GUAACAUGCUGGUGAUCAUACAUGAGGAUCACCCAUGUAACAAGCUUUUUGUUCGUCUUAUAAGAUCACCAGCAUGU [Stov1/9-B2] (Eterna round: R97, puzzle: Sensor, turn-off variant 1)	18.4	19.8	–	–	–	–
AACGUCUAGGUAGGAUAUCCACCAACAGGUGGAAGGAUAUGUUCGCAGAAGGUUCGCCAACAGGCGGAGAAGGACCUACGCGUA [pwkr exNG2 2xF7 2xFMN.31] (Eterna round: R96, puzzle: Exclusion NG 2)	11.1	116	–	–	–	24.6
AUGCGCAAGCUUUUUGUUCACAUGAGGAUCACCCAUGUUAUGGUCGCCUGUGAGGAGCGAUAGCGUCUCCGACCUGA [Eternabot (Original) Solution 31] (Eterna round: R97, puzzle: Sensor, turn-off variant 1)	35.7	36.5	–	–	–	–
GCAGCAUAGUCGGAAACGACAGAACAUGAGGAUCACCCAUGUCAGGAUAUGGUCUGGAUUACAGGCCAGAAGGGACGAAGCUGC [Eli exng3 - 010] (Eterna round: R96, puzzle: Exclusion NG 3)	13.5	16	–	–	–	11.4
GAUUAUGCGAGCUUUAGGGACAUGAGGAUCACCCAUGUUCGUCUUAUUGGUCUGGGUACACUAACAUACCUAAAUCU [JMF 22] (puzzle: Sensor v3, turn-off variant 1)	–	–	47.9	33.4	36.2	–
AAGUAACAUGAGGAUCACCCAUGUUAGGAUAUCUCGGCCACAGGAUCCCUGUGAAGCCAGAGAAGGAGCGGGUG [Ceraso] (Eterna round: R97, puzzle: Exclusion 1)	169	202	–	–	–	–
GGUGGACAUGAGGAUCACCCAUGUGAGGAUAUCGGCUAUCUACUCGCUGACGGCUGCUCGAGAAGGCGCAUUGU [Exclusion 1 V90] (puzzle: Exclusion 1)	–	–	44.8	–	–	–
AACCUAAGGCAUAGCUUUAGGUUUACAUGAGGAUCACCCAUGUAGGAUAUGGUAGGCAUAGCUUACCAGAAGGACAUGAAAAUU [Mat - Exclusion NG 3 - Mod of JL - D31] (Eterna round: R96, puzzle: Exclusion NG 3)	240	46.1	–	–	–	46.8
